According to the supplement of paper PMC5998384:

What was measured:
HeLa Kyoto [1] = test: solubility change mitosis vs G1/S (difference of NP-40 vs SDS log2 ratios) (log2 ratio difference); higher = more soluble in mitosis
HeLa Kyoto [2] = test: melting temperature (median over replicates), in situ; higher = more thermally stable
HeLa Kyoto [3] = test: solubility in G1/S (NP-40 vs SDS abundance) (log2 ratio); higher = more soluble; conditions: cell cycle stage: G1/S
HeLa Kyoto [4] = test: thermal stability score vs G1/S (z-score of summed log2 fold changes over temperatures); higher = more thermally stable than in G1/S
[5] = cell cycle stage: early G1 (4.5 h after nocodazole release)
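Throughout, for melting temperature (median over replicates), in situ: HeLa Kyoto cells synchronized by double thymidine or nocodazole block, proteins quantified by TMT10plex mass spectrometry, three independent biological replicates.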
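Throughout, for solubility change mitosis vs G1/S (difference of NP-40 vs SDS log2 ratios): synchronized HeLa Kyoto cells (double thymidine block for G1/S, nocodazole release for mitosis), protein amounts in NP-40 versus SDS lysates quantified by mass spectrometry, three biological replicates.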
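Throughout, for solubility in G1/S (NP-40 vs SDS abundance): HeLa Kyoto cells arrested at G1/S by double thymidine block, proteins quantified by TMT10plex mass spectrometry in mild NP-40 versus SDS extracts, three biological replicates.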
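Throughout, for thermal stability score vs G1/S (z-score of summed log2 fold changes over temperatures): synchronized HeLa Kyoto cells, proteins quantified by TMT10plex mass spectrometry, three biological replicates, mitosis taken 0.5 h after nocodazole release, G1/S directly after double thymidine block.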

| Sequence | solubility change mitosis (log2) (HeLa Kyoto [1]) | melting temperature (HeLa Kyoto [2]; cell cycle stage: G1/S) | melting temperature (HeLa Kyoto [2]; cell cycle stage: mitosis) | solubility in G1/S (log2) (HeLa Kyoto [3]) | thermal stability score (HeLa Kyoto [4]; [5]) | thermal stability score (HeLa Kyoto [4]; cell cycle stage: mitosis) |
| --- | --- | --- | --- | --- | --- | --- |
| MLQQVPENINFPAEEEKILEFWTEFNCFQECLKQSKHKPKFTFYDGPPFATGLPHYGHILAGTIKDIVTRYAHQSGFHVDRRFGWDCHGLPVEYEIDKTLGIRGPEDVAKMGITEYNNQCRAIVMRYSAEWKSTVSRLGRWIDFDNDYKTLYPQFMESVWWVFKQLYDKGLVYRGVKVMPFSTACNTPLSNFESHQNYKDVQDPSVFVTFPLEEDETVSLVAWTTTPWTLPSNLAVCVNPEMQYVKIKDVARGRLLILMEARLSALYKLESDYEILERFPGAYLKGKKYRPLFDYFLKCKENGAFTVLVDNYVKEEEGTGVVHQAPYFGAEDYRVCMDFNIIRKDSLPVCPVDASGCFTTEVTDFAGQYVKDADKSIIRTLKEQGRLLVATTFTHSYPFCWRSDTPLIYKAVPSWFVRVENMVDQLLRNNDLCYWVPELVREKRFGNWLKDARDWTISRNRYWGTPIPLWVSDDFEEVVCIGSVAELEELSGAKISDLHRESVDHLTIPSRCGKGSLHRISEVFDCWFESGSMPYAQVHYPFENKREFEDAFPADFIAEGIDQTRGWFYTLLVLATALFGQPPFKNVIVNGLVLASDGQKMSKRKKNYPDPVSIIQKYGADALRLYLINSPVVRAENLRFKEEGVRDVLKDVLLPWYNAYRFLIQNVLRLQKEEEIEFLYNENTVRESPNITDRWILSFMQSLIGFFETEMAAYRLYTVVPRLVKFVDILTNWYVRMNRRRLKGENGMEDCVMALETLFSVLLSLCRLMAPYTPFLTELMYQNLKVLIDPVSVQDKDTLSIHYLMLPRVREELIDKKTESAVSQMQSVIELGRVIRDRKTIPIKYPLKEIVVIHQDPEALKDIKSLEKYIIEELNVRKVTLSTDKNKYGIRLRAEPDHMVLGKRLKGAFKAVMTSIKQLSSEELEQFQKTGTIVVEGHELHDEDIRLMYTFDQATGGTAQFEAHSDAQALVLLDVTPDQSMVDEGMAREVINRIQKLRKKCNLVPTDEITVYYKAKSEGTYLNSVIESHTEFIFTTIKAPLKPYPVSPSDKVLIQEKTQLKGSELEITLTRGSSLPGPACAYVNLNICANGSEQGGVLLLENPKGDNRLDLLKLKSVVTSIFGVKNTELAVFHDETEIQNQTDLLSLSGKTLCVTAGSAPSLINSSSTLLCQYINLQLLNAKPQECLMGTVGTLLLENPLGQNGLTHQGLLYEAAKVFGLRSRKLKLFLNETQTQEITEDIPVKTLNMKTVYVSVLPTTADF [IARS] | -0.178 | 48.8 °C | 49.2 °C | -0.225 | 0.0148 | 2.81 |
| MLRACQLSGVTAAAQSCLCGKFVLRPLRPCRRYSTSGSSGLTTGKIAGAGLLFVGGGIGGTILYAKWDSHFRESVEKTIPYSDKLFEMVLGPAAYNVPLPKKSIQSGPLKISSVSEVMKESKQPASQLQKQKGDTPASATAPTEAAQIISAAGDTLSVPAPAVQPEESLKTDHPEIGEGKPTPALSEEASSSSIRERPPEEVAARLAQQEKQEQVKIESLAKSLEDALRQTASVTLQAIAAQNAAVQAVNAHSNILKAAMDNSEIAGEKKSAQWRTVEGALKERRKAVDEAADALLKAKEELEKMKSVIENAKKKEVAGAKPHITAAEGKLHNMIVDLDNVVKKVQAAQSEAKVVSQYHELVVQARDDFKRELDSITPEVLPGWKGMSVSDLADKLSTDDLNSLIAHAHRRIDQLNRELAEQKATEKQHITLALEKQKLEEKRAFDSAVAKALEHHRSEIQAEQDRKIEEVRDAMENEMRTQLRRQAAAHTDHLRDVLRVQEQELKSEFEQNLSEKLSEQELQFRRLSQEQVDNFTLDINTAYARLRGIEQAVQSHAVAEEEARKAHQLWLSVEALKYSMKTSSAETPTIPLGSAVEAIKANCSDNEFTQALTAAIPPESLTRGVYSEETLRARFYAVQKLARRVAMIDETRNSLYQYFLSYLQSLLLFPPQQLKPPPELCPEDINTFKLLSYASYCIEHGDLELAAKFVNQLKGESRRVAQDWLKEARMTLETKQIVEILTAYASAVGIGTTQVQPE [IMMT] | 0.0268 | 53.2 °C | 52 °C | 0.38 | 0.171 | -1.21 |
| MLRAKNQLFLLSPHYLRQVKESSGSRLIQQRLLHQQQPLHPEWAALAKKQLKGKNPEDLIWHTPEGISIKPLYSKRDTMDLPEELPGVKPFTRGPYPTMYTFRPWTIRQYAGFSTVEESNKFYKDNIKAGQQGLSVAFDLATHRGYDSDNPRVRGDVGMAGVAIDTVEDTKILFDGIPLEKMSVSMTMNGAVIPVLANFIVTGEEQGVPKEKLTGTIQNDILKEFMVRNTYIFPPEPSMKIIADIFEYTAKHMPKFNSISISGYHMQEAGADAILELAYTLADGLEYSRTGLQAGLTIDEFAPRLSFFWGIGMNFYMEIAKMRAGRRLWAHLIEKMFQPKNSKSLLLRAHCQTSGWSLTEQDPYNNIVRTAIEAMAAVFGGTQSLHTNSFDEALGLPTVKSARIARNTQIIIQEESGIPKVADPWGGSYMMECLTNDVYDAALKLINEIEEMGGMAKAVAEGIPKLRIEECAARRQARIDSGSEVIVGVNKYQLEKEDAVEVLAIDNTSVRNRQIEKLKKIKSSRDQALAERCLAALTECAASGDGNILALAVDASRARCTVGEITDALKKVFGEHKANDRMVSGAYRQEFGESKEITSAIKRVHKFMEREGRRPRLLVAKMGQDGHDRGAKVIATGFADLGFDVDIGPLFQTPREVAQQAVDADVHAVGISTLAAGHKTLVPELIKELNSLGRPDILVMCGGVIPPQDYEFLFEVGVSNVFGPGTRIPKAAVQVLDDIEKCLEKKQQSV [MUT] | -0.0993 | 50.6 °C | 50.3 °C | 0.0667 | -0.0875 | 0.531 |
| MLRCLYHWHRPVLNRRWSRLCLPKQYLFTMKLQSPEFQSLFTEGLKSLTELFVKENHELRIAGGAVRDLLNGVKPQDIDFATTATPTQMKEMFQSAGIRMINNRGEKHGTITARLHEENFEITTLRIDVTTDGRHAEVEFTTDWQKDAERRDLTINSMFLGFDGTLFDYFNGYEDLKNKKVRFVGHAKQRIQEDYLRILRYFRFYGRIVDKPGDHDPETLEAIAENAKGLAGISGERIWVELKKILVGNHVNHLIHLIYDLDVAPYIGLPANASLEEFDKVSKNVDGFSPKPVTLLASLFKVQDDVTKLDLRLKIAKEEKNLGLFIVKNRKDLIKATDSSDPLKPYQDFIIDSREPDATTRVCELLKYQGEHCLLKEMQQWSIPPFPVSGHDIRKVGISSGKEIGALLQQLREQWKKSGYQMEKDELLSYIKKT [TRNT1] | -0.109 | 50.9 °C | 50.2 °C | 0.146 | 1.75 | 1.59 |
| MLRWLRDFVLPTAACQDAEQPTRYETLFQALDRNGDGVVDIGELQEGLRNLGIPLGQDAEEKIFTTGDVNKDGKLDFEEFMKYLKDHEKKMKLAFKSLDKNNDGKIEASEIVQSLQTLGLTISEQQAELILQSIDVDGTMTVDWNEWRDYFLFNPVTDIEEIIRFWKHSTGIDIGDSLTIPDEFTEDEKKSGQWWRQLLAGGIAGAVSRTSTAPLDRLKIMMQVHGSKSDKMNIFGGFRQMVKEGGIRSLWRGNGTNVIKIAPETAVKFWAYEQYKKLLTEEGQKIGTFERFISGSMAGATAQTFIYPMEVMKTRLAVGKTGQYSGIYDCAKKILKHEGLGAFYKGYVPNLLGIIPYAGIDLAVYELLKSYWLDNFAKDSVNPGVMVLLGCGALSSTCGQLASYPLALVRTRMQAQAMLEGSPQLNMVGLFRRIISKEGIPGLYRGITPNFMKVLPAVGISYVVYENMKQTLGVTQK [SLC25A24] | -0.0619 | 56.8 °C | 57.8 °C | 0.296 | -1.13 | -0.922 |
| MLSAASRVVSRAAVHCALRSPPPEARALAMSRPPPPRVASVLGTMEMGRRMDAPASAAAVRAFLERGHTELDTAFMYSDGQSETILGGLGLGLGGGDCRVKIATKANPWDGKSLKPDSVRSQLETSLKRLQCPQVDLFYLHAPDHGTPVEETLHACQRLHQEGKFVELGLSNYASWEVAEICTLCKSNGWILPTVYQGMYNATTRQVETELFPCLRHFGLRFYAYNPLAGGLLTGKYKYEDKDGKQPVGRFFGNSWAETYRNRFWKEHHFEAIALVEKALQAAYGASAPSVTSAALRWMYHHSQLQGAHGDAVILGMSSLEQLEQNLAATEEGPLEPAVVDAFNQAWHLVAHECPNYFR [AKR7A2] | -0.121 | 53.1 °C | 53.1 °C | 0.438 | 0.491 | 0.31 |
| MLSESSSFLKGVMLGSIFCALITMLGHIRIGHGNRMHHHEHHHLQAPNKEDILKISEDERMELSKSFRVYCIILVKPKDVSLWAAVKETWTKHCDKAEFFSSENVKVFESINMDTNDMWLMMRKAYKYAFDKYRDQYNWFFLARPTTFAIIENLKYFLLKKDPSQPFYLGHTIKSGDLEYVGMEGGIVLSVESMKRLNSLLNIPEKCPEQGGMIWKISEDKQLAVCLKYAGVFAENAEDADGKDVFNTKSVGLSIKEAMTYHPNQVVEGCCSDMAVTFNGLTPNQMHVMMYGVYRLRAFGHIFNDALVFLPPNGSDND [C1GALT1C1] | -0.0947 | 53.9 °C | 53.4 °C | 0.0342 | -0.0972 | -0.609 |
| MLSLLVWILTLSDTFSQGTQTRFSQEPADQTVVAGQRAVLPCVLLNYSGIVQWTKDGLALGMGQGLKAWPRYRVVGSADAGQYNLEITDAELSDDASYECQATEAALRSRRAKLTVLIPPEDTRIDGGPVILLQAGTPHNLTCRAFNAKPAATIIWFRDGTQQEGAVASTELLKDGKRETTVSQLLINPTDLDIGRVFTCRSMNEAIPSGKETSIELDVHHPPTVTLSIEPQTVQEGERVVFTCQATANPEILGYRWAKGGFLIEDAHESRYETNVDYSFFTEPVSCEVHNKVGSTNVSTLVNVHFAPRIVVDPKPTTTDIGSDVTLTCVWVGNPPLTLTWTKKDSNMVLSNSNQLLLKSVTQADAGTYTCRAIVPRIGVAEREVPLYVNGPPIISSEAVQYAVRGDGGKVECFIGSTPPPDRIAWAWKENFLEVGTLERYTVERTNSGSGVLSTLTINNVMEADFQTHYNCTAWNSFGPGTAIIQLEEREVLPVGIIAGATIGASILLIFFFIALVFFLYRRRKGSRKDVTLRKLDIKVETVNREPLTMHSDREDDTASVSTATRVMKAIYSSFKDDVDLKQDLRCDTIDTREEYEMKDPTNGYYNVRAHEDRPSSRAVLYADYRAPGPARFDGRPSSRLSHSSGYAQLNTYSRGPASDYGPEPTPPGPAAPAGTDTTSQLSYENYEKFNSHPFPGAAGYPTYRLGYPQAPPSGLERTPYEAYDPIGKYATATRFSYTSQHSDYGQRFQQRMQTHV [KIRREL] | 0.0763 | 52 °C | 52.2 °C | -0.151 | -1.16 | -0.769 |
| MLSSCVRPVPTTVRFVDSLICNSSRSFMDLKALLSSLNDFASLSFAESWDNVGLLVEPSPPHTVNTLFLTNDLTEEVMEEVLQKKADLILSYHPPIFRPMKRITWNTWKERLVIRALENRVGIYSPHTAYDAAPQGVNNWLAKGLGACTSRPIHPSKAPNYPTEGNHRVEFNVNYTQDLDKVMSAVKGIDGVSVTSFSARTGNEEQTRINLNCTQKALMQVVDFLSRNKQLYQKTEILSLEKPLLLHTGMGRLCTLDESVSLATMIDRIKRHLKLSHIRLALGVGRTLESQVKVVALCAGSGSSVLQGVEADLYLTGEMSHHDTLDAASQGINVILCEHSNTERGFLSDLRDMLDSHLENKINIILSETDRDPLQVV [NIF3L1] | -0.161 | 60.8 °C | 60.7 °C | 0.187 | -0.711 | -0.332 |
